Assay results taken from paper PMC5519370.

Molecular target: TgSPT1 Δ158 (Toxoplasma gondii serine palmitoyltransferase 1 with an N-terminal deletion of 158 amino acids) (Toxoplasma gondii)
Experiment: SAXS (small-angle X-ray scattering); size exclusion chromatography HPLC mode, Beamline B21 Diamond Light Source; sample concentrated to ~5 mg/ml; Porod volume 150387 Å^3 equivalent to 94 kDa; ab initio envelope compared with a homodimeric homology model

Q: With “TgSPT1 Δ158 (Toxoplasma gondii serine palmitoyltransferase 1 with an N-terminal deletion of 158 amino acids) (enzyme)” as the substance, how does the stoichiometry N read?
A: 2
